Results on one substance are retold here after article PMC4130213.

Data set [1] relates to CovR-P (phosphorylated CovR) (Streptococcus pyogenes (M6 serotype, JRS4?)). Nature of the data set: DNase I footprinting. The settings on record: not given in the material (DNase I protection assay details absent).
In data set [2] the test system is CovR (unphosphorylated) (Streptococcus pyogenes (M6 serotype, JRS4?)). Nature of the data set: DNase I footprinting. The settings on record: not given in the material (DNase I protection assay details absent).

Take Pska wild type: the binding signal in data set [1] stood at 0.25 µM; in data set [2] it was 3 µM.
